Patent US20200199241A1 (Chugai, published 2020)

T1: human FcγRIIa(H) (human, UniProt P12318 36-217)
T1 construct: also called FcgRIIaH; FcγRIIa type H
T1 sequence: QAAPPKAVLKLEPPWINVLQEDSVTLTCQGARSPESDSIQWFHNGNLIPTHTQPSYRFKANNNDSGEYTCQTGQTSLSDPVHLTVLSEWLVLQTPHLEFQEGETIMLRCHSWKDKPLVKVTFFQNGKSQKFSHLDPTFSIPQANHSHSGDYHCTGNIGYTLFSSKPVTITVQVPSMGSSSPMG

T2: human FcγRIIa(R) (human, UniProt P12318 36-217)
T2 construct: also called FcgRIIaR; FcγRIIa type R
T2 chain: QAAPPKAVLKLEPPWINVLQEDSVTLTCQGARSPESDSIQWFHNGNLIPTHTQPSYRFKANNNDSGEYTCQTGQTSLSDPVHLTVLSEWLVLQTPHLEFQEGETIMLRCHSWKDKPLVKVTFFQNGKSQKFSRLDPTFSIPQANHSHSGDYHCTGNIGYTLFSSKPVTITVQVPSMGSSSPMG

T3: human FcγRIIb (human, UniProt P31994 43-217, limits assumed)
T3 construct: also called FcgRIIb
T3 sequence: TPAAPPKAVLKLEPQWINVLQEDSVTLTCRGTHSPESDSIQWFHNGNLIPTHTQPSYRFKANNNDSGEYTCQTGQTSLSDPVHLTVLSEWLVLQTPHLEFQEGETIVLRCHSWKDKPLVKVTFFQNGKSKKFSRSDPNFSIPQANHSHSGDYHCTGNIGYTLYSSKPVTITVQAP


Legend:
Assay in all cases: SPR (Biacore);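 also: antibody variants captured on sensor chip, Fcγ receptor flowed over at 25 °C, bound receptor normalized to amount of captured antibody, expressed relative to reference antibody set as 100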
human FcγRIIa(H) = biological target: T1, human FcγRIIa(H)
human FcγRIIIa(F) = biological target: T4, human FcγRIIIa(F) (human, UniProt P08637 17-208, limits assumed)
T4 construct: also called FcgRIIIaF; allotype F158
T4 sequence (P08637 other isoform, or with tags, fused parts or gaps limits assumed): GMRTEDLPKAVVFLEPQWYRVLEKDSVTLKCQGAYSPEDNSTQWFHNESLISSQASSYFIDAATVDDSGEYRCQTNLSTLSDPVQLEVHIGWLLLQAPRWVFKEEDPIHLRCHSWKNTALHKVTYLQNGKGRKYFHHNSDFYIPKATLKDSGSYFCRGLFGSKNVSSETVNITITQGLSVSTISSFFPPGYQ

human FcγRIIa(R) = biological target: T2, human FcγRIIa(R)
human FcγRIa = biological target: T5, human FcγRIa (human, UniProt P12314 16-292, limits assumed)
T5 construct: also called FcgRIa; FcγRI (CD64)
T5 sequence (P12314 16-292 limits assumed): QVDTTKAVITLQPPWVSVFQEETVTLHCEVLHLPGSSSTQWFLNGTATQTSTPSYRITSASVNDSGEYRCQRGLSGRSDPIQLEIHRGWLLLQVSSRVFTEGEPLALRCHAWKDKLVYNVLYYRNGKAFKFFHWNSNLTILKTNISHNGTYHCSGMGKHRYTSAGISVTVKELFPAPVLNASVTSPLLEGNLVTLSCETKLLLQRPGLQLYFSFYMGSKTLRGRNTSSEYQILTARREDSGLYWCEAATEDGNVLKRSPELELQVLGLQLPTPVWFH

human FcγRIIb = biological target: T3, human FcγRIIb

Binder	relative binding activity (human FcγRIIa(H))	relative binding activity (human FcγRIIIa(F))	relative binding activity (human FcγRIIa(R))	relative binding activity (human FcγRIa)	relative binding activity (human FcγRIIb)
GpH7-B3 variant G237L/GpL16-k0 (antibody, human IgG1, copies: 2 + 2) heavy: not shown light: DIVMTQSPLSLPVTPGEPASISCQASESLVHSNRNTYLHWYLQKPGQSPQLLIYKVSNRFSGVPDRFSGSGSGTDFTLKISRVEAEDVGVYYCSQNTHVPPTFGQGTKVEIE	1 % of GpH7-B3/GpL16-k0	0 % of GpH7-B3/GpL16-k0	58 % of GpH7-B3/GpL16-k0	7 % of GpH7-B3/GpL16-k0	51 % of GpH7-B3/GpL16-k0
GpH7-B3 variant L234F/GpL16-k0 (antibody, human IgG1, copies: 2 + 2) heavy: not shown light: DIVMTQSPLSLPVTPGEPASISCQASESLVHSNRNTYLHWYLQKPGQSPQLLIYKVSNRFSGVPDRFSGSGSGTDFTLKISRVEAEDVGVYYCSQNTHVPPTFGQGTKVEIE	62 % of GpH7-B3/GpL16-k0	49 % of GpH7-B3/GpL16-k0	52 % of GpH7-B3/GpL16-k0	96 % of GpH7-B3/GpL16-k0	68 % of GpH7-B3/GpL16-k0
GpH7-B3 variant G237M/GpL16-k0 (antibody, human IgG1, copies: 2 + 2) heavy: not shown light: DIVMTQSPLSLPVTPGEPASISCQASESLVHSNRNTYLHWYLQKPGQSPQLLIYKVSNRFSGVPDRFSGSGSGTDFTLKISRVEAEDVGVYYCSQNTHVPPTFGQGTKVEIE	1 % of GpH7-B3/GpL16-k0	0 % of GpH7-B3/GpL16-k0	56 % of GpH7-B3/GpL16-k0	14 % of GpH7-B3/GpL16-k0	36 % of GpH7-B3/GpL16-k0
GpH7-B3 variant L234K/GpL16-k0 (antibody, human IgG1, copies: 2 + 2) heavy: not shown light: DIVMTQSPLSLPVTPGEPASISCQASESLVHSNRNTYLHWYLQKPGQSPQLLIYKVSNRFSGVPDRFSGSGSGTDFTLKISRVEAEDVGVYYCSQNTHVPPTFGQGTKVEIE	1 % of GpH7-B3/GpL16-k0	1 % of GpH7-B3/GpL16-k0	-2 % of GpH7-B3/GpL16-k0	54 % of GpH7-B3/GpL16-k0	-3 % of GpH7-B3/GpL16-k0
GpH7-B3 variant L234M/GpL16-k0 (antibody, human IgG1, copies: 2 + 2) heavy: not shown light: DIVMTQSPLSLPVTPGEPASISCQASESLVHSNRNTYLHWYLQKPGQSPQLLIYKVSNRFSGVPDRFSGSGSGTDFTLKISRVEAEDVGVYYCSQNTHVPPTFGQGTKVEIE	57 % of GpH7-B3/GpL16-k0	50 % of GpH7-B3/GpL16-k0	65 % of GpH7-B3/GpL16-k0	100 % of GpH7-B3/GpL16-k0	53 % of GpH7-B3/GpL16-k0
GpH7-B3 variant L234S/GpL16-k0 (antibody, human IgG1, copies: 2 + 2) heavy: not shown light: DIVMTQSPLSLPVTPGEPASISCQASESLVHSNRNTYLHWYLQKPGQSPQLLIYKVSNRFSGVPDRFSGSGSGTDFTLKISRVEAEDVGVYYCSQNTHVPPTFGQGTKVEIE	21 % of GpH7-B3/GpL16-k0	22 % of GpH7-B3/GpL16-k0	20 % of GpH7-B3/GpL16-k0	63 % of GpH7-B3/GpL16-k0	19 % of GpH7-B3/GpL16-k0
GpH7-B3 variant L234N/GpL16-k0 (antibody, human IgG1, copies: 2 + 2) heavy: not shown light: DIVMTQSPLSLPVTPGEPASISCQASESLVHSNRNTYLHWYLQKPGQSPQLLIYKVSNRFSGVPDRFSGSGSGTDFTLKISRVEAEDVGVYYCSQNTHVPPTFGQGTKVEIE	35 % of GpH7-B3/GpL16-k0	47 % of GpH7-B3/GpL16-k0	36 % of GpH7-B3/GpL16-k0	67 % of GpH7-B3/GpL16-k0	44 % of GpH7-B3/GpL16-k0
GpH7-B3 variant L234R/GpL16-k0 (antibody, human IgG1, copies: 2 + 2) heavy: not shown light: DIVMTQSPLSLPVTPGEPASISCQASESLVHSNRNTYLHWYLQKPGQSPQLLIYKVSNRFSGVPDRFSGSGSGTDFTLKISRVEAEDVGVYYCSQNTHVPPTFGQGTKVEIE	2 % of GpH7-B3/GpL16-k0	4 % of GpH7-B3/GpL16-k0	0 % of GpH7-B3/GpL16-k0	50 % of GpH7-B3/GpL16-k0	0 % of GpH7-B3/GpL16-k0
GpH7-B3 variant L234A/GpL16-k0 (antibody, human IgG1, copies: 2 + 2) heavy: not shown light: DIVMTQSPLSLPVTPGEPASISCQASESLVHSNRNTYLHWYLQKPGQSPQLLIYKVSNRFSGVPDRFSGSGSGTDFTLKISRVEAEDVGVYYCSQNTHVPPTFGQGTKVEIE	25 % of GpH7-B3/GpL16-k0	22 % of GpH7-B3/GpL16-k0	26 % of GpH7-B3/GpL16-k0	79 % of GpH7-B3/GpL16-k0	24 % of GpH7-B3/GpL16-k0
GpH7-B3 variant L234D/GpL16-k0 (antibody, human IgG1, copies: 2 + 2) heavy: not shown light: DIVMTQSPLSLPVTPGEPASISCQASESLVHSNRNTYLHWYLQKPGQSPQLLIYKVSNRFSGVPDRFSGSGSGTDFTLKISRVEAEDVGVYYCSQNTHVPPTFGQGTKVEIE	18 % of GpH7-B3/GpL16-k0	51 % of GpH7-B3/GpL16-k0	51 % of GpH7-B3/GpL16-k0	31 % of GpH7-B3/GpL16-k0	77 % of GpH7-B3/GpL16-k0
